Results: PMC7480041 (bioRxiv, 2020)

Target: truncated recombinant SARS-CoV-2 nucleocapsid (N) protein, AA133–419 (SARS-CoV-2 (isolate USA-WA1/2020), UniProt P0DTC9)
Assay: ELISA

B1: mBG21 (antibody, V domains shown)
VH: QIQLVQSGPELKKPGETVKISCKASGYTFTDYSMHWVKQAPGKGSKWMGWINTETGEPTYADDFKGRFAFSLETSASTAYLQINNLKNEDTATYFCALRRWGQGTLVTVSS
VL: IVMTQTPKFLLVSAGDRVTITCKASQSVSNDVAWFQQKPGQSPKKLLIYFASNRYTGVPDRFTGSGYGTDFTFTITTVQAEDLAVYFCQQDYSSPWTFGGGTKLEIK
corrected average ELISA signal: 1.43
